Values joined by “and” are separate entries in the source; they are usually repeats but may differ in a detail not shown here. Equal values may be shown once.

The target in data set [1] is TBP;TFIIA (single chain);TFIIB (Homo sapiens;Homo sapiens;Homo sapiens?) (UniProt P20226+P52655+P52657+Q00403). Put plainly: smFRET. The following applies: Binding buffer and temperature not in the material (origami folding buffer: 10 mM Tris pH 7.6, 1 mM EDTA, 20 mM MgCl2, 5 mM NaCl); TFIIB 0.2 uM, TFIIA 2 uM ….
TBP;TFIIA (single chain);TFIIB (Homo sapiens;Homo sapiens;Homo sapiens?), sequence (P20226 whole entry, chain 1 of 4): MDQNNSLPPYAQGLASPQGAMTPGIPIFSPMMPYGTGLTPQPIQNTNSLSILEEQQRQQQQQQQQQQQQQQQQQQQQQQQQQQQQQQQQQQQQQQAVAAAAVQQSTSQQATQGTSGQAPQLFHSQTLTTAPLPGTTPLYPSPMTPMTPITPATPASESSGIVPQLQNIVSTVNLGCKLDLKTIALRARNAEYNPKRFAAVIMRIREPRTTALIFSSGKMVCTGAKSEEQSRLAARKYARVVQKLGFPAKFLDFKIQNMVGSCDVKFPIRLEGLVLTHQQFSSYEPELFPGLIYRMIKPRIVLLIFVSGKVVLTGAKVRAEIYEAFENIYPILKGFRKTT
TBP;TFIIA (single chain);TFIIB (Homo sapiens;Homo sapiens;Homo sapiens?), sequence (P52655 whole entry, chain 2 of 4): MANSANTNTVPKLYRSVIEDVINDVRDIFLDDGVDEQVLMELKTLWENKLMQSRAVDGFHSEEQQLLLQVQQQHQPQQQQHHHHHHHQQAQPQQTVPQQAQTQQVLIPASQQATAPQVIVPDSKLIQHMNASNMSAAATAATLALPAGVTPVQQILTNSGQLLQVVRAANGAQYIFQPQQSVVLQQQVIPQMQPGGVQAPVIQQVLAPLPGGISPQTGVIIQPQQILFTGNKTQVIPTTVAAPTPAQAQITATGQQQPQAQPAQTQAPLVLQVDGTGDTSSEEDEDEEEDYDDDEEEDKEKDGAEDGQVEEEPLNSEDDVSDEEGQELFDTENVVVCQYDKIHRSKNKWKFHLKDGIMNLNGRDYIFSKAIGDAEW
TBP;TFIIA (single chain);TFIIB (Homo sapiens;Homo sapiens;Homo sapiens?), sequence (P52657 whole entry, chain 3 of 4): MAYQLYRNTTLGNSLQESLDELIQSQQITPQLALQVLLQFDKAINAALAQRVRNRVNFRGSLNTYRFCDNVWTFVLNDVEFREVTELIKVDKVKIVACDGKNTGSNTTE
TBP;TFIIA (single chain);TFIIB (Homo sapiens;Homo sapiens;Homo sapiens?), sequence (Q00403 whole entry, chain 4 of 4): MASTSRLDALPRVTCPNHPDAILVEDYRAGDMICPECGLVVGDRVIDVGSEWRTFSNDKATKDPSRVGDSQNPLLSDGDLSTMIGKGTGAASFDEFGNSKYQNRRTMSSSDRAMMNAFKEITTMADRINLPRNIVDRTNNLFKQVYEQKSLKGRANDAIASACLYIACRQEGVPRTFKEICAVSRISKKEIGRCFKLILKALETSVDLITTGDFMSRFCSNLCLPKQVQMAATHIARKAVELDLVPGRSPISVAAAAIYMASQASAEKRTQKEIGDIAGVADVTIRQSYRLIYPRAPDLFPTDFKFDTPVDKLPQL
Data set [2] has as its target TBP;TFIIA (single chain) (Homo sapiens;Homo sapiens) (UniProt P20226+P52655+P52657). Put plainly: smFRET. As to conditions: Binding buffer and temperature not in the material (origami folding buffer: 10 mM Tris pH 7.6, 1 mM EDTA, 20 mM MgCl2, 5 mM NaCl); TFIIB 0.2 uM, TFIIA 2 uM ….
For the next data set, the target named is TBP (Homo sapiens, UniProt P20226 169-339). Put plainly: smFRET; TIRF dwell times; 0 pN; 20 nM TBP; E=0.39; Binding buffer and temperature not in the material (origami folding buffer: 10 mM Tris pH 7.6, 1 mM EDTA, 20 mM MgCl2, 5 mM NaCl); TFIIB 0.2 uM, TFIIA 2 uM, other proteins 20 nM. The following applies: protein: recombinant; tags: N-terminal His; label: ATTO 532 and ATTO 647N on S17 strand (positions by colour only); ds region (U6_comp) within ssDNA spring.
TBP, sequence (P20226 169-339): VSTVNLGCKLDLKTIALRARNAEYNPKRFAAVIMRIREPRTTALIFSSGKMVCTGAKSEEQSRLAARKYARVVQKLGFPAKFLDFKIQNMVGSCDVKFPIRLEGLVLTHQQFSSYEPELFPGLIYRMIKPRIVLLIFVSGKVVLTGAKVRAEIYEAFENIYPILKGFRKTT

TBP;TFIIA (single chain) (Homo sapiens;Homo sapiens), sequence (P20226 whole entry, chain 1 of 3): as the sequence (P20226 whole entry, chain 1 of 4) above
TBP;TFIIA (single chain) (Homo sapiens;Homo sapiens), sequence (P52655 whole entry, chain 2 of 3): as the sequence (P52655 whole entry, chain 2 of 4) above
TBP;TFIIA (single chain) (Homo sapiens;Homo sapiens), sequence (P52657 whole entry, chain 3 of 3): as the sequence (P52657 whole entry, chain 3 of 4) above

Consider “AAGCTTTAGGGCGCCTATAAAAGGGGGTTCGGGCG (double strand) [AdMLP promoter in DNA origami force clamp]”, for which the binding signal (% high FRET (bent)) is 72 and 53 in data set [1]; 26 in data set [2].

B1: U6 snRNA promoter in DNA origami force clamp (dsDNA)
DNA 1: CGGACCAAGATGATTTGATTGAAGGGCTTAAAATAGGTGTTAGAGTAACCCTTGA
DNA 2: TCAAGGGTTACTCTAACACCTATTTTAAGCCCTTCAATCAAATCATCTTGGTCCG
As to B1, the binding result in the data set with TBP is “binds”.
